Measurements: paper PMC9482650, “Quantitative fragmentomics allow affinity mapping of interactomes” (Nature Communications, 2022)
Residue numbers refer to the chain shown, from its start.

Legend:
Assay in all cases: holdup assay
Set-up in all cases: key: below the threshold = too weak to quantify, mostly under pKd 3.1 to 4
Settings in all cases: plain residues with an end cap or a label only (N-terminal biotin on a linker: ado-ado)
APBA1_2, Q02410 = biological target: T1, APBA1_2, Q02410
T1 sequence (Q02410 742-832, limits assumed, looked up): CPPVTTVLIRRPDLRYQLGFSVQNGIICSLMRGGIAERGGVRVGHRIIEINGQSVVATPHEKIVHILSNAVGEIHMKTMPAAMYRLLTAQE

ARHGEF12, Q9NZN5-2 = biological target: ARHGEF12, Q9NZN5-2
DLG1_1, Q12959 = biological target: DLG1_1, Q12959
DLG2_2, Q15700 = biological target: DLG2_2, Q15700
DLG3_3, Q92796 = biological target: T2, DLG3_3, Q92796
T2 sequence (Q92796 374-475, limits assumed, looked up): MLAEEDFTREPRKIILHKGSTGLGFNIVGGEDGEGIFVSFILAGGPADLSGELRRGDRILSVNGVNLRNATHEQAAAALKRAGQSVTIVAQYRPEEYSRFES

DLG4_3, P78352 = biological target: DLG4_3, P78352
FRMPD2_1, Q68DX3 = biological target: FRMPD2_1, Q68DX3
FRMPD2_2, Q68DX3 = biological target: FRMPD2_2, Q68DX3
FRMPD3, Q5JV73 = biological target: FRMPD3, Q5JV73
GOPC, Q9HD26 = biological target: GOPC, Q9HD26
GORASP1, Q9BQQ3 = biological target: GORASP1, Q9BQQ3
GRIP2_3, Q9C0E4 = biological target: GRIP2_3, Q9C0E4
HTRA3, P83110 = biological target: T3, HTRA3, P83110
T3 sequence (P83110 354-453, limits assumed, looked up): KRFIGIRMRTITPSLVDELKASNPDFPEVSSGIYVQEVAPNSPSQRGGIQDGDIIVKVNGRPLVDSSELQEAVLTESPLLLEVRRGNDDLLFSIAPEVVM

Inadl_1, Q8NI35 = biological target: Inadl_1, Q8NI35
Inadl_10, Q8NI35 = biological target: Inadl_10, Q8NI35
Inadl_4, Q8NI35 = biological target: Inadl_4, Q8NI35
Inadl_6, Q8NI35 = biological target: Inadl_6, Q8NI35
Inadl_8, Q8NI35 = biological target: Inadl_8, Q8NI35
LIN7B, Q9HAP6 = biological target: T4, LIN7B, Q9HAP6
T4 sequence (Q9HAP6 88-185, limits assumed, looked up): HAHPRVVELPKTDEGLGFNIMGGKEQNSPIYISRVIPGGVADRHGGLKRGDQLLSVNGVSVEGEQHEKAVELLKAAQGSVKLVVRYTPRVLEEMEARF

LIN7C, Q9NUP9 = biological target: T5, LIN7C, Q9NUP9
T5 sequence (Q9NUP9 88-185, limits assumed, looked up): T4 sequence (Q9HAP6 88-185, limits assumed, looked up) with A2S, D13E, V35I, V40I, Q65H, S79K, R89K, A96S

LNX1_2, Q8TBB1 = biological target: LNX1_2, Q8TBB1
LNX1_3, Q8TBB1 = biological target: LNX1_3, Q8TBB1
MAGI1_2, Q96QZ7 = biological target: MAGI1_2, Q96QZ7
MAGI2_3, Q86UL8 = biological target: MAGI2_3, Q86UL8
MAGI3_2, Q5TCQ9 = biological target: MAGI3_2, Q5TCQ9
MAST2, Q6P0Q8 = biological target: MAST2, Q6P0Q8
NHERF3_3, Q5T2W1 = biological target: T6, NHERF3_3, Q5T2W1
T6 sequence (Q5T2W1 238-333, limits assumed, looked up): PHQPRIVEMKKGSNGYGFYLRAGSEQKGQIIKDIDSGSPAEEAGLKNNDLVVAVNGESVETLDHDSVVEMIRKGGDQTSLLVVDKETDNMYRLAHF

NHERF4_4, Q86UT5 = biological target: NHERF4_4, Q86UT5
PARD3_3, Q8TEW0 = biological target: PARD3_3, Q8TEW0
RHPN1, Q8TCX5 = biological target: T7, RHPN1, Q8TCX5
T7 sequence (Q8TCX5 508-602, limits assumed, looked up): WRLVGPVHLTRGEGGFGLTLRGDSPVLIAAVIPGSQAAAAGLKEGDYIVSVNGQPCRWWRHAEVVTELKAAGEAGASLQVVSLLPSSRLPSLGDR

SNTA1, Q13424 = biological target: T8, SNTA1, Q13424
T8 sequence (Q13424 82-180, limits assumed, looked up): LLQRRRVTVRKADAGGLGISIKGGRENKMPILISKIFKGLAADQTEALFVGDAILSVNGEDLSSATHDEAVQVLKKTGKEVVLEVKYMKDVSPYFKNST

Sequence of Inadl_4, Q8NI35 (Q8NI35 547-651): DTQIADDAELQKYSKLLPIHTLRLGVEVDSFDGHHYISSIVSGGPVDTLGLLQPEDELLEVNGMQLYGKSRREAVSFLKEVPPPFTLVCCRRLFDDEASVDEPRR
Sequence of MAGI3_2, Q5TCQ9 (Q5TCQ9 398-503): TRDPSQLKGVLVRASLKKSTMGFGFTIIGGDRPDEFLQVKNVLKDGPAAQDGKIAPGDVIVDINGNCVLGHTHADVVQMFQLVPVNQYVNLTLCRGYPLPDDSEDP
Sequence of GORASP1, Q9BQQ3 (Q9BQQ3 1-208): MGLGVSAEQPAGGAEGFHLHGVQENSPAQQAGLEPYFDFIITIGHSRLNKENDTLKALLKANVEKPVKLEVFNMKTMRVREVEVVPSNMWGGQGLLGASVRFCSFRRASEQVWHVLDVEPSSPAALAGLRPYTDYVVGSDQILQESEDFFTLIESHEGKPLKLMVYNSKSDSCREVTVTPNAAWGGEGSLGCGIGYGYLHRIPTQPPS
Sequence of MAGI1_2, Q96QZ7 (Q96QZ7 456-580): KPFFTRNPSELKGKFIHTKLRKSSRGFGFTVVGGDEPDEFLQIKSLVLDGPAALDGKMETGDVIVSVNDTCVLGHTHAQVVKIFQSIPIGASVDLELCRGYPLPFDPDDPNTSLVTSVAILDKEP
Sequence of LNX1_2, Q8TBB1 (Q8TBB1 371-470): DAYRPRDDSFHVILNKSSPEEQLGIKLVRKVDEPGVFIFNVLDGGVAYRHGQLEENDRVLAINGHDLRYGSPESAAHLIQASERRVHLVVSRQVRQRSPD
Sequence of FRMPD2_2, Q68DX3 (Q68DX3 944-1038): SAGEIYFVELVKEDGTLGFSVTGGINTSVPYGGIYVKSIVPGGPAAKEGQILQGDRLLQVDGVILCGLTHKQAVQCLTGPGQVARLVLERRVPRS
Sequence of FRMPD3, Q5JV73 (Q5JV73 12-100): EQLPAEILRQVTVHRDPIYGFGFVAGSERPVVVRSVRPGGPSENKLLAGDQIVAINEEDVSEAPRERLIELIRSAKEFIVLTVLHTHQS
Sequence of Inadl_10, Q8NI35 (Q8NI35 1673-1763): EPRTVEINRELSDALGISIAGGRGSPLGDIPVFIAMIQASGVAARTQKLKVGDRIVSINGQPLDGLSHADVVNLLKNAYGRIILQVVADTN
Sequence of ARHGEF12, Q9NZN5-2 (Q9NZN5 other isoform, or with tags, fused parts or gaps): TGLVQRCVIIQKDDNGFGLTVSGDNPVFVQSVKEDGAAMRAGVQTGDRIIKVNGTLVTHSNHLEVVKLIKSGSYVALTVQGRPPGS
Sequence of MAST2, Q6P0Q8 (Q6P0Q8 1099-1202): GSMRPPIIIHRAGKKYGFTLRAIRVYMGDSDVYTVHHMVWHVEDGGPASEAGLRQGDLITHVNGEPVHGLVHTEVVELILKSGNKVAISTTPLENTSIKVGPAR
Sequence of FRMPD2_1, Q68DX3 (Q68DX3 770-861): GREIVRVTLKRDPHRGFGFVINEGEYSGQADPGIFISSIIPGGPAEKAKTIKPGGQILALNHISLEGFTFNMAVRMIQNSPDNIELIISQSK
Sequence of PARD3_3, Q8TEW0 (Q8TEW0 582-685): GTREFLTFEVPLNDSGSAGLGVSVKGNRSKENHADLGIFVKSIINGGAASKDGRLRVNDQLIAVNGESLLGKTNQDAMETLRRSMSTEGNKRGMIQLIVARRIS
Sequence of Inadl_6, Q8NI35 (Q8NI35 1058-1167): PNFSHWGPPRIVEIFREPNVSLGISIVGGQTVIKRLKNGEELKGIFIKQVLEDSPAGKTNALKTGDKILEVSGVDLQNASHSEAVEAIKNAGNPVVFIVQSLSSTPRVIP
Sequence of NHERF4_4, Q86UT5 (Q86UT5 464-550): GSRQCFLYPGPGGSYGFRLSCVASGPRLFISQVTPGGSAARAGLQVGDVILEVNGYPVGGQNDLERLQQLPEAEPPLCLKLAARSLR
Sequence of Inadl_1, Q8NI35 (Q8NI35 113-229): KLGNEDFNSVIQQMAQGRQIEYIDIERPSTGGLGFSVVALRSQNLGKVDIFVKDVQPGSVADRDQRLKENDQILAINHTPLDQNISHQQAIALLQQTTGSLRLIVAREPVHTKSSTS
Sequence of MAGI2_3, Q86UL8 (Q86UL8 600-682): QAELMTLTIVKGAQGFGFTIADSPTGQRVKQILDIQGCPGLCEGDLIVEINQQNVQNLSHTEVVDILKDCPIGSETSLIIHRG
Sequence of DLG4_3, P78352 (P78352 306-403): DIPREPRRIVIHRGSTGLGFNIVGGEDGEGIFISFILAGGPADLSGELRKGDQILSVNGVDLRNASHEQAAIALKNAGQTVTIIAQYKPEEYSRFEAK
Sequence of DLG2_2, Q15700 (Q15700 189-283): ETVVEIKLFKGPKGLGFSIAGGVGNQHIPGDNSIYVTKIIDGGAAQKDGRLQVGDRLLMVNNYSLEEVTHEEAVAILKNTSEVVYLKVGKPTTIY
Sequence of LNX1_3, Q8TBB1 (Q8TBB1 500-596): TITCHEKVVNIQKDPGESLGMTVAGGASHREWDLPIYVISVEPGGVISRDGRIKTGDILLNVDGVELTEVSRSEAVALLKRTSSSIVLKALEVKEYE
Sequence of GRIP2_3, Q9C0E4 (Q9C0E4 238-339): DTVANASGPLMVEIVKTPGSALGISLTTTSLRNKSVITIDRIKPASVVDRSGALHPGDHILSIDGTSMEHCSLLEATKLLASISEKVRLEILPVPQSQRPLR
Sequence of Inadl_8, Q8NI35 (Q8NI35 1425-1530): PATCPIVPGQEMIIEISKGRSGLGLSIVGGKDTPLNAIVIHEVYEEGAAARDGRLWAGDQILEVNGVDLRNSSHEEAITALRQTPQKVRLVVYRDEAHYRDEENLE

Binder	pKd (APBA1_2, Q02410)	pKd (ARHGEF12, Q9NZN5-2)	pKd (DLG1_1, Q12959)	pKd (DLG2_2, Q15700)	pKd (DLG3_3, Q92796)	pKd (DLG4_3, P78352)	pKd (FRMPD2_1, Q68DX3)	pKd (FRMPD2_2, Q68DX3)	pKd (FRMPD3, Q5JV73)	pKd (GOPC, Q9HD26)	pKd (GORASP1, Q9BQQ3)	pKd (GRIP2_3, Q9C0E4)	pKd (HTRA3, P83110)	pKd (Inadl_1, Q8NI35)	pKd (Inadl_10, Q8NI35)	pKd (Inadl_4, Q8NI35)	pKd (Inadl_6, Q8NI35)	pKd (Inadl_8, Q8NI35)	pKd (LIN7B, Q9HAP6)	pKd (LIN7C, Q9NUP9)	other results
SRPHTNETSL [MCC, P23508]	3.59	4.68	3.72	below the threshold	3.95	3.95	below the threshold	below the threshold	below the threshold	3.9	below the threshold	below the threshold	below the threshold	below the threshold	below the threshold	below the threshold	3.83	below the threshold	3.64	3.65	pKd (LNX1_2, Q8TBB1): below the threshold; pKd (LNX1_3, Q8TBB1): below the threshold; pKd (MAGI1_2, Q96QZ7): 3.63; pKd (MAGI2_3, Q86UL8): below the threshold; pKd (MAGI3_2, Q5TCQ9): 4.09; pKd (MAST2, Q6P0Q8): 5.66; pKd (NHERF3_3, Q5T2W1): below the threshold; pKd (NHERF4_4, Q86UT5): below the threshold; pKd (PARD3_3, Q8TEW0): below the threshold; pKd (RHPN1, Q8TCX5): 4.64; pKd (SNTA1, Q13424): 4.47
GSQSQVETEA [FKBP4, Q02790]	below the threshold	below the threshold	below the threshold	below the threshold	below the threshold	below the threshold	3.53	below the threshold	below the threshold	below the threshold	below the threshold	below the threshold	below the threshold	below the threshold	below the threshold	below the threshold	below the threshold	below the threshold	3.62	below the threshold	pKd (LNX1_2, Q8TBB1): below the threshold; pKd (LNX1_3, Q8TBB1): below the threshold; pKd (MAGI1_2, Q96QZ7): below the threshold; pKd (MAGI2_3, Q86UL8): below the threshold; pKd (MAGI3_2, Q5TCQ9): below the threshold; pKd (MAST2, Q6P0Q8): below the threshold; pKd (NHERF3_3, Q5T2W1): below the threshold; pKd (NHERF4_4, Q86UT5): below the threshold; pKd (PARD3_3, Q8TEW0): below the threshold; pKd (RHPN1, Q8TCX5): 3.77; pKd (SNTA1, Q13424): below the threshold
ATKDKKITTV [EXOC4, Q96A65]	3.82	4.87	5.05	5.75	4.56	4.5	3.54	below the threshold	below the threshold	3.87	3.76	3.51	below the threshold	below the threshold	below the threshold	below the threshold	3.53	4.42	below the threshold	below the threshold	pKd (LNX1_2, Q8TBB1): 4.1; pKd (LNX1_3, Q8TBB1): below the threshold; pKd (MAGI1_2, Q96QZ7): 4.91; pKd (MAGI2_3, Q86UL8): 3.57; pKd (MAGI3_2, Q5TCQ9): 5.31; pKd (MAST2, Q6P0Q8): 4.92; pKd (NHERF3_3, Q5T2W1): below the threshold; pKd (NHERF4_4, Q86UT5): 3.99; pKd (PARD3_3, Q8TEW0): below the threshold; pKd (RHPN1, Q8TCX5): 4.08; pKd (SNTA1, Q13424): 4.26
